# Test results taken from patent US20240092892A1 (BIO THERA SOLUTIONS, published 2024).
# Experiments:
# [1] = target: T1, human CLDN18.1 (human, UniProt P56856 1-261); experiment: flow cytometry on CHO-CLDN18.1 cells
# T1 construct: also called CHO-CLDN18.1 cells
# Description: Flow cytometry was used to detect the binding capacity of anti-CLDN18.2 antibodies to cells expressing CLDN18.2, and the specificity of not binding to CLDN18.1 of the antibody was further detected. The experimental procedure overview was as follows: CLDN18.2 positive cells (KATOIII or CHO-CLDN18.2) and negative cells (CHO-CLDN18.1) were collected, washed once with PBS, resuspended in PBS, and plated on a 96-well V-bottom plate (Cat. No. 3897, Costar) at 0.1 million cells/50 μL/well. The antibody was pre-diluted to 333.2 nM with PBS, then diluted 2-fold with 9 gradients, added at 50 μL/well to the cells in the 96-well V-bottom plate described above, and mixed well (final antibody concentrations: 166.6, 83.3, 41.6, 20.8, 10.4, 5.2, 2.6, 1.3, 0.65, and 0.325 nM). The mixture was incubated at 4° C. for 1 h and washed twice with PBS. Then 100 μL of 1:500 diluted goat anti-human IgG-Fc PE fluorescent secondary antibody (Cat. No. 12-4998-82, eBioscience) was added. The mixture was incubated at 4° C. for 1 h, washed twice with PBS, and analyzed with a CytoFLEX flow cytometer (model: AOO-1-1102, Beckman). [0192]
# [2] = target: human CLDN18.2 (human); experiment: cell-based or functional assay
# T1 sequence (P56856 whole entry): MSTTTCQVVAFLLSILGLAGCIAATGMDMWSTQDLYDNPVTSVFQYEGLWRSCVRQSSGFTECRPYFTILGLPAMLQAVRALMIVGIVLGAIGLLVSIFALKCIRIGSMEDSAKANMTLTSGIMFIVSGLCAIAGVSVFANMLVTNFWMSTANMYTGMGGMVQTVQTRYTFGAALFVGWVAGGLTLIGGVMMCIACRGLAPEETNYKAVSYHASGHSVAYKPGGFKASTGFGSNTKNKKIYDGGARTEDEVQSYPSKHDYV
binding result [1],"ADCC Reporter Bioassay (Jurkat-NFAT-luc-FcγRIIIa effector cells, luciferase) EC50 [2] [pM]",Binder,"CDC cell killing rate (CCK-8, 5% human serum complement) IC50 [2] [pM]"
no binding,,"H239H-2a-K-6a (antibody, human IgG1, kappa, V domains shown, Humanized antibody derived from CH239H-2-K-6, human IgG1/kappa constant regions; also called H239H-2a-K-6α) VH: EVQLLESGGGLVQPGGSLRLSCAASGFTFSDYGMHWVRQAPGKGLEWVAYISRGRSTTYSTDTVKGRFTISRDSSKNTLYLQMNSLRAEDTAVYYCARGSYYGNAMDYWGQGTLVTVSS VL: DIVMTQSPDSLAVSLGERATINCKSSQSLLNSGNQRNYLTWYQQKPGQPPKLLIYWASTRESGVPDRFSGSGSGTDFTLTISSLQAEDVAVYYCQSAYSYPFTFGGGTKLEIKR",
no binding,62.5,"H239H-2b-K-6a (antibody, human IgG1, kappa, V domains shown, Humanized antibody derived from CH239H-2-K-6, human IgG1/kappa constant regions; also called H239H-2b-K-6α) VH: EVQLLESGGGLVQPGGSLRLSCAASGFTFSDYGMHWVRQAPGKGLEWVAYISRGRSTTYSTDTVKGRFTISRDNSKNTLYLQMNSLRAEDTAVYYCARGSYYGNAMDYWGQGTLVTVSS VL: DIVMTQSPDSLAVSLGERATINCKSSQSLLNSGNQRNYLTWYQQKPGQPPKLLIYWASTRESGVPDRFSGSGSGTDFTLTISSLQAEDVAVYYCQSAYSYPFTFGGGTKLEIKR",291
,795,"IMAB362 (antibody, V domains shown) VH: QVQLQQPGAELVRPGASVKLSCKASGYTFTSYWINWVKQRPGQGLEWIGNIYPSDSYTNYNQKFKDKATLTVDKSSSTAYMQLSSPTSEDSAVYYCTRSWRGNSFDYWGQGTTLTVSS VL: DIVMTQSPSSLTVTAGEKVTMSCKSSQSLLNSGNQKNYLTWYQQKPGQPPKLLIYWASTRESGVPDRFTGSGSGTDFTLTISSVQAEDLAVYYCQNDYSYPFTFGSGTKLEIKR",5870
